Measurements from paper PMC3367197 (Nucleic Acids Research, 2012).
Several values for one entry are separate records, joined by “and”; a condition that tells them apart may be missing. Equal values may be shown once.

Columns and labels:
[1] = target: His-tagged human NPM3 (human) (UniProt O75607); test: native MS
[2] = target: His-tagged human NPM3 (human) (UniProt O75607); test: native gel or EMSA
cross-linking = target: the molecule itself; test: cross-linking
His-tagged human NPM1 = His-tagged human NPM1 (human, UniProt P06748 1-294); test: native gel or EMSA
His-tagged human NPM1, sequence (P06748 whole entry): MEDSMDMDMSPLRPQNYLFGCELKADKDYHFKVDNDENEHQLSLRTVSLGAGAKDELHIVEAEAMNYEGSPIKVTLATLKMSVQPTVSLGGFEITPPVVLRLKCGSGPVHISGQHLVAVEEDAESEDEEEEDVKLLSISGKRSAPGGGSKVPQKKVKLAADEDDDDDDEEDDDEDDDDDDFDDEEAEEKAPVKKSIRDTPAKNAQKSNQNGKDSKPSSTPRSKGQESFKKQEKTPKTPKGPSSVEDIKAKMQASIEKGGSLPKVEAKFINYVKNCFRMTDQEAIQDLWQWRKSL

Molecule: His-tagged human NPM3 (from UniProt O75607 1-178) (natural protein)
- stoichiometry N [1]: 2
- stoichiometry N [2]: 2

B1: His-tagged human NPM2 (natural protein)
chain: MNLSSASSTEEKAVTTVLWGCELSQERRTWTFRPQLEGKQSCRLLLHTICLGEKAKEEMHRVEILPPANQEDKKMQPVTIASLQASVLPMVSMVGVQLSPPVTFQLRAGSGPVFLSGQERYEASDLTWEEEEEEEGEEEEEEEEDDEDEDADISLEEQSPVKQVKRLVPQKQASVAKKKKLEKEEEEIRASVRDKSPVKKAKATARAKKPGFKK
- stoichiometry N (cross-linking): 5 and 10

B2: His-tagged human NPM3 (natural protein)
chain: MAAGTAAALAFLSQESRTRAGGVGGLRVPAPVTMDSFFFGCELSGHTRSFTFKVEEEDDAEHVLALTMLCLTEGAKDECNVVEVVARNHDHQEIAVPVANLKLSCQPMLSLDDFQLQPPVTFRLKSGSGPVRITGRHQIVTMSNDVSEEESEEEEEDSDEEEVELCPILPAKKQGGRP
- stoichiometry N (His-tagged human NPM1): 4 NPM1 per NPM3 (NPM1:NPM3 4:1)
